Data taken from doi:10.1101/2020.01.13.903898 (bioRxiv, 2020).
One block for each molecule: values may come before it.

What was measured:
[1] = biological target: zebrafish PATZ1 BTB domain (residues 1-135) (zebrafish (Danio rerio)); assay: SEC
SEC = biological target: the molecule itself; assay: SEC

stoichiometry N [1]: 2
Molecule: zebrafish PATZ1 BTB domain (residues 1-135) (domain or fragment)

B1: mouse PATZ1 BTB domain (residues 12-166) (domain or fragment)
chain: SGCYTYQVSRHSTEMLHNLNQQRKNGGRFCDVLLRVGDESFPAHRAVLAACSEYFESVFSAQLGDGGAADGGPADVGGAAAAPGGGAGGSRELEMHTISSKVFGDILDFAYTSRIVVRLESFPELMTAAKFLLMRSVIEICQEVIKQSNVQILVP
stoichiometry N (SEC): 2
